This note sets out measurements from PMC4104448.

The term Kd denotes the concentration at which binding is half-saturated. A high value points to weaker binding.

The assay concerns the target Biotinylated human CI-MPR domains I-XV (residues 41Q-G2293) (human) (UniProt P11717). Briefly: SPR; equilibrium binding; about 1,000 RU of biotinylated ligand on a streptavidin-coupled CM5 chip, LIMP-2 as analyte; Biacore T100, 25 °C, 10 mM HEPES pH 7.5, 150 mM NaCl, 0.005% Tween 20; one-site saturation binding model. On the technique in general: Surface plasmon resonance follows binding to a sensor surface in real time, without labels.

Biotinylated human CI-MPR domains I-XV (residues 41Q-G2293) (human), sequence (P11717 41-2293): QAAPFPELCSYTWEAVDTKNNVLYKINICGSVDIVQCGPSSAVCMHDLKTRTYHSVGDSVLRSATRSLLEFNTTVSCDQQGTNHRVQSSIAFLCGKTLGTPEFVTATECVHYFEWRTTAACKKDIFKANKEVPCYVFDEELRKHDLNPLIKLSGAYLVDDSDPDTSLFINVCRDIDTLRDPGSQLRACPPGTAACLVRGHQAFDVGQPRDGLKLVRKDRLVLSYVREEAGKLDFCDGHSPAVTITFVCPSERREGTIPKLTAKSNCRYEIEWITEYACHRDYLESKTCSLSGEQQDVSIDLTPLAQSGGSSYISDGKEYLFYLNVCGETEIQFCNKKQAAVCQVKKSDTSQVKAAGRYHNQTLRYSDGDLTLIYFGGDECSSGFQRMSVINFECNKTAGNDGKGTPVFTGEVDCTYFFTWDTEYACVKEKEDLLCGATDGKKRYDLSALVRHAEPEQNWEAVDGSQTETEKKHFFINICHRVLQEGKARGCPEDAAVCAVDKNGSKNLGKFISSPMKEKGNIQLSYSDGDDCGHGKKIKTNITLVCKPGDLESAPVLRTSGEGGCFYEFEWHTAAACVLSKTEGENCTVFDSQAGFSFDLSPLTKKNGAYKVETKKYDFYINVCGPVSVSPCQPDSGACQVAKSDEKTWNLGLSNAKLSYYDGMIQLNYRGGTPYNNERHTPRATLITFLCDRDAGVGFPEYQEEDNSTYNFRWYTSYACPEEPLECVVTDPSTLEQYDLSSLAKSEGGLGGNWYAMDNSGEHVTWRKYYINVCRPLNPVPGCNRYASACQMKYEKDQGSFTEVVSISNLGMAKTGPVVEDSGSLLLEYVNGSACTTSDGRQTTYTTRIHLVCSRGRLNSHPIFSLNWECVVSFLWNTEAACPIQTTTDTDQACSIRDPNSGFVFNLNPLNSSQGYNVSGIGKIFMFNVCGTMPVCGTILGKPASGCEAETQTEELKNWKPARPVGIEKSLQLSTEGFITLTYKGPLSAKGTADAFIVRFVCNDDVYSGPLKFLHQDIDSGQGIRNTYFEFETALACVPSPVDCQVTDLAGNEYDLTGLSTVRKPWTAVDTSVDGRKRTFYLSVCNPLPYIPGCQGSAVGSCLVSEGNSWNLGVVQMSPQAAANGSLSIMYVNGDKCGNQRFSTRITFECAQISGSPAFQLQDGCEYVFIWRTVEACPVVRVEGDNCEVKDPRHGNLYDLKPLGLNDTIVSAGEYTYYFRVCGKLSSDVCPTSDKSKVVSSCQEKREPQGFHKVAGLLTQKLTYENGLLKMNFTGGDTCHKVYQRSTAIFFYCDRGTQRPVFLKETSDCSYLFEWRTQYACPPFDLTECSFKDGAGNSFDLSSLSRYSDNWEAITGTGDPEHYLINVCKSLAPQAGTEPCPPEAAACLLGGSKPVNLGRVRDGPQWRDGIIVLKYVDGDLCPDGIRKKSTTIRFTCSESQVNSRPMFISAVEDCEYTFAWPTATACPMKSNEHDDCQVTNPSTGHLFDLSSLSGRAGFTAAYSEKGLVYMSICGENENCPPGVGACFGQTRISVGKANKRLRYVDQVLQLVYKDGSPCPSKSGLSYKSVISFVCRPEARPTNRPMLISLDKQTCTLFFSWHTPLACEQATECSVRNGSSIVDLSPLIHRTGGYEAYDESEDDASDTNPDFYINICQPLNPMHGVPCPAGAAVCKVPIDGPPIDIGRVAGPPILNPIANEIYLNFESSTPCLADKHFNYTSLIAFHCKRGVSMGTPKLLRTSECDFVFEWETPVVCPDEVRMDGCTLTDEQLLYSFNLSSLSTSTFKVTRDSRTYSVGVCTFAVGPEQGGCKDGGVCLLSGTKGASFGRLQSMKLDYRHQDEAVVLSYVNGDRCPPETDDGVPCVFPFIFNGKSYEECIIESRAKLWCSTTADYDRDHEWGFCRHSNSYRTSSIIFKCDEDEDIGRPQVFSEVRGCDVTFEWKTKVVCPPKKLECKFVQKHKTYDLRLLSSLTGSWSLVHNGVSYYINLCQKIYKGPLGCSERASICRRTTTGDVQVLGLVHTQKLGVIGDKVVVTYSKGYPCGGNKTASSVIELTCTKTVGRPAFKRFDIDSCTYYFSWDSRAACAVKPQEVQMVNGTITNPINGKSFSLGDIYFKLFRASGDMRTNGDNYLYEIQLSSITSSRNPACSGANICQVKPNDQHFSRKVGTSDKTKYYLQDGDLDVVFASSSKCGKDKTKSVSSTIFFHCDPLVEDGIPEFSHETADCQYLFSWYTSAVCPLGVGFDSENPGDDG

Take “Human LIMP-2 luminal domain (residues 28-431) produced from HEK293S (GnTI-) cells, with limited glycosylation (from UniProt Q14108 28-431) (domain or fragment)”: the Kd turned out to be 2200 nM. The value for “Human LIMP-2 luminal domain (residues 28-431) produced from HEK293T cells, with full glycosylation (from UniProt Q14108 28-431) (domain or fragment)” was 970 nM.
